# Measurements as given in patent publication US20180346555A1 (Regeneron, published 2018).
# T1: natural Bet v 1 (Betula verrucosa (Betula pendula), UniProt P15494 2-160)
# T1 construct: Bought natural protein; also called nBet v 1
# T1 chain: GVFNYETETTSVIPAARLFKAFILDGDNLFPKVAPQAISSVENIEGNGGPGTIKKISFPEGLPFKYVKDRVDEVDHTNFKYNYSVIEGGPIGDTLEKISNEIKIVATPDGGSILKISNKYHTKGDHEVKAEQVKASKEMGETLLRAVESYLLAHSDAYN
# B1: H4H16950P (antibody, human IgG4, V domains shown)
# VH: QVQLVQSGAEVKKPGASVKVSCKTSGYTFTNYGITWVRQAPGQGLEWMGWISAYNGNTNYAQNVQGRVTMTTDTSTSTAYMEVRSLRSDDTAVYYCARRSSMLHFQHWGQGTLVTVSS
# VL: DIVMTQSPDSLAVSLGERATINCKSSQHVLYDSSNENYLAWFQQKPGQPPKLLIYWASTRESGVPDRFSGSGSGTDFTLTISSLQAEDVAVYYCQQYSSAPYTFGQGTKLEIK
# B2: H4H16943P (antibody, human IgG4, V domains shown)
# VH: EVQLVESGGGLVQPGGSLRLSCTASGFMSSMYWMSWVRQAPGKGLEWVSNIKQDGTEKNYVESVKGRFTISRDNAKNSLYLQINSLRGEDTAVYYCARDLYSSSSGYYYYGLDVWGQGTTVTVSS
# VL: DIVMTQSPLSLPVTPGEPASISCRSSQSLLHSNKYNYLDWYLQKPGQSPQLLIYLSSNRASGVPDRFSGSGSGTEFTLKISRVEAEDVGIYYCMQALHTPLTFGGGTKVEIK
# notes: Fully human antibody
# B3: H4H16971P (antibody, human IgG4, V domains shown)
# VH: QVQLVESGGGVVQPGRSLRLSCAASGFTFSSYGLHWVRQAPGKGLEWVAVISDDGSYKFYADSMKGRFTISRDNSKNTLYLQMNSLRAEDTAVYYCAKDRGRSGWYYFDYWGQGTLVTVSS
# VL: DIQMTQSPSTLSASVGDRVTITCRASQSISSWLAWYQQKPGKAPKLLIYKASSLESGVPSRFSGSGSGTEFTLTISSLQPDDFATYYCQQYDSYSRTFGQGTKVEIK
# B4: H4H16967P (antibody, human IgG4, V domains shown)
# VH: QVQLVESGGGVVQPGRSLRLSCAASGFTFSSYGMHWFRQAPGKGLEWVGVIWSDGSDKKYADSVKGRFTISRDNSKNTLYLLMNSLRDDDTAVYHCAREGGFLYSSSSHFDYWGQGTLVTVSS
# VL: AIQMTQSPSSLSASVGDRVTITCRTSQGIRNDLGWYQQKPGKAPKLLIFAASSLQSGVPSRFSGSGSGTDFTLTISSLQPEDFAIYYCLQDYKYPFTFGGGTKVEIK
# B5: H4H16946P (antibody, human IgG4, V domains shown)
# VH: EVQLVESGGGLVQPGGSLRLSCVASGFTFSNYDMNWVRQAPGEGLEWISYISYSDHNIYYIDSVKGRFTISRDNAKNSLYLQMNSLRAEDTAIYYCAREALASSSFDYWGQGTLVTVSS
# VL: EIVMTQSPATLSVSPGERVTLSCRASQSVSGNLAWYQQKPGQAPRLLIYSASTGATGVPARFSGSGSGTEFTLTISSLQSEDFALYYCQQYNKWPRTIGQGTKVEIK
# B6: H4H16960P (antibody, human IgG4, V domains shown)
# VH: QLQLQESGPGLVRPSETLSLTCTVSGGSISSSNYWWGWIRQPPGKGLEWIGSIYYSGITYYNPSLKSRVTISADTSKDQFSLKLRSVTAADTAVYYCAKLEWLRLDFWGQGTTVTVSS
# VL: DIQMTQSPSSVSASVGDRVTITCRASQGISSWLVWYQQKPGKVPKLLIYAASSLQSGVPLRFSGSGSGTDFTLTISSLQPEDFATYYCQQAKSFPLTFGQGTRLEIK
# How the values were obtained:
# natural Bet v 1 [1] = target: T1, natural Bet v 1; assay: SPR Biacore 4000, mAb captured on anti-human Fc, 25C;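 also: purified anti-Bet v 1 mAbs probed with natural Bet v 1 in HBS-ET buffer (HEPES, NaCl, EDTA, Tween-20) at pH 7.4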
# natural Bet v 1 [2] = target: T1, natural Bet v 1; assay: SPR Biacore 4000, mAb captured on anti-human Fc, 37C;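 also: kinetic rate constants from SPR sensorgrams fitted to a 1:1 model with mass transport limitation, HBS-ET buffer pH 7.4, KD and t½ derived from the rate constants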
# Protocol: Equilibrium dissociation constants (KD) for natural Bet v 1 binding to purified anti-Bet v 1 monoclonal antibodies were determined using a real-time surface plasmon resonance biosensor (SPR-Biacore) on a Biacore 4000 instrument. All binding studies were performed in 10 mM HEPES, 150 mM NaCl, 3 mM EDTA, and 0.05% v/v surfactant Tween-20, pH 7.4 (HBS-ET) running buffer at 25° C. and 37° C. […] Association (kₐ) and dissociation (kd) rate constants were determined by fitting the real-time binding sensorgrams to a 1:1 binding model with mass transport limitation using Scrubber 2.0c curve-fitting software. Binding dissociation equilibrium constants (KD) and dissociative half-lives (t½) were calculated from the kinetic rate constants as:
Binder,100 nM natural Bet v 1 Bound (RU) (natural Bet v 1 [1]),Kd (natural Bet v 1 [1]) [nM],koff (natural Bet v 1 [1]) [s⁻¹],kon (natural Bet v 1 [1]) [M⁻¹ s⁻¹],t½ (natural Bet v 1 [1]) [min],100 nM natural Bet v 1 Bound (RU) (natural Bet v 1 [2]),Kd (natural Bet v 1 [2]) [nM],koff (natural Bet v 1 [2]) [s⁻¹],kon (natural Bet v 1 [2]) [M⁻¹ s⁻¹],t½ (natural Bet v 1 [2]) [min]
B1,58,5.23,0.000503,96100,23,76,8.57,0.00121,141000,10
B2,71,1.4,0.00023,164000,50,88,4.89,0.00127,260000,9.1
B3,57,3.26,0.000781,240000,15,66,6.93,0.00244,352000,4.7
B4,27,3.98,0.000149,37600,77,45,14.3,0.000719,50400,16
B5,74,0.982,0.000201,205000,58,93,2.08,0.000601,289000,19
B6,57,1.64,0.00069,422000,17,65,2.54,0.00168,662000,6.8
